{"source": "paper PMC10266731", "about": "(Science Advances, 2023)", "molecules": {"B1": {"name": "Malonyl-CoA reductase (Mcr) (Chloroflexus aurantiacus J-10-fl) (protein)", "chain": "MSGTGRLAGKIALITGGAGNIGSELTRRFLAEGATVIISGRNRAKLTALAERMQAEAGVPAKRIDLEVMDGSDPVAVRAGIEAIVARHGQIDILVNNAGSAGAQRRLAEIPLTEAELGPGAEETLHASIANLLGMGWHLMRIAAPHMPVGSAVINVSTIFSRAEYYGRIPYVTPKAALNALSQLAARELGARGIRVNTIFPGPIESDRIRTVFQRMDQLKGRPEGDTAHHFLNTMRLCRANDQGALERRFPSVGDVADAAVFLASAESAALSGETIEVTHGMELPACSETSLLARTDLRTIDASGRTTLICAGDQIEEVMALTGMLRTCGSEVIIGFRSAAALAQFEQAVNESRRLAGADFTPPIALPLDPRDPATIDAVFDWAGENTGGIHAAVILPATSHEPAPCVIEVDDERVLNFLADEITGTIVIASRLARYWQSQRLTPGARARGPRVIFLSNGADQNGNVYGRIQSAAIGQLIRVWRHEAELDYQRASAAGDHVLPPVWANQIVRFANRSLEGLEFACAWTAQLLHSQRHINEITLNIPANISATTGARSASVGWAESLIGLHLGKVALITGGSAGIGGQIGRLLALSGARVMLAARDRHKLEQMQAMIQSELAEVGYTDVEDRVHIAPGCDVSSEAQLADLVERTLSAFGTVDYLINNAGIAGVEEMVIDMPVEGWRHTLFANLISNYSLMRKLAPLMKKQGSGYILNVSSYFGGEKDAAIPYPNRADYAVSKAGQRAMAEVFARFLGPEIQINAIAPGPVEGDRLRGTGERPGLFARRARLILENKRLNELHAALIAAARTDERSMHELVELLLPNDVAALEQNPAAPTALRELARRFRSEGDPAASSSSALLNRSIAAKLLARLHNGGYVLPADIFANLPNPPDPFFTRAQIDREARKVRDGIMGMLYLQRMPTEFDVAMATVYYLADRNVSGETFHPSGGLRYERTPTGGELFGLPSPERLAELVGSTVYLIGEHLTEHLNLLARAYLERYGARQVVMIVETETGAETMRRLLHDHVEAGRLMTIVAGDQIEAAIDQAITRYGRPGPVVCTPFRPLPTVPLVGRKDSDWSTVLSEAEFAELCEHQLTHHFRVARKIALSDGASLALVTPETTATSTTEQFALANFIKTTLHAFTATIGVESERTAQRILINQVDLTRRARAEEPRDPHERQQELERFIEAVLLVTAPLPPEADTRYAGRIHRGRAITV"}, "B2": {"name": "Ccr (Methylorubrum extorquens AM1) (protein)", "chain": "MAASAAPAWTGQTAEAKDLYELGEIPPLGHVPAKMYAWAIRRERHGPPEQSHQLEVLPVWEIGDDEVLVYVMAAGVNYNGVWAGLGEPISPFDVHKGEYHIAGSDASGIVWKVGAKVKRWKVGDEVIVHCNQDDGDDEECNGGDPMFSPTQRIWGYETGDGSFAQFCRVQSRQLMARPKHLTWEEAACYTLTLATAYRMLFGHAPHTVRPGQNVLIWGASGGLGVFGVQLCAASGANAIAVISDESKRDYVMSLGAKGVINRKDFDCWGQLPTVNSPEYNTWLKEARKFGKAIWDITGKGNDVDIVFEHPGEATFPVSTLVAKRGGMIVFCAGTTGFNITFDARYVWMRQKRIQGSHFAHLKQASAANQFVMDRRVDPCMSEVFPWDKIPAAHTKMWKNQHPPGNMAVLVNSTRAGLRTVEDVIEAGPLKAM"}, "B3": {"name": "succinyl-CoA:L-malate CoA transferase (Smt) (Chloroflexus aurantiacus) (protein)", "chain 1": "MPPTGEEPSGHAESKPPASDPMSTPGTGQEQLPLSGIRVIDVGNFLAGPYAASILGEFGAEVLKIEHPLGGDPMRRFGTATARHDATLAWLSEARNRKSVTIDLRQQEGVALFLKLVAKSDILIENFRPGTMEEWGLSWPVLQATNPGLIMLRVSGYGQTGPYRRRSGFAHIAHAFSGLSYLAGFPGETPVLPGTAPLGDYIASLFGAIGILIALRHKEQTGRGQLIDVGIYEAVFRILDEIAPAYGLFGKIREREGAGSFIAVPHGHFRSKDGKWVAIACTTDKMFERLAEAMERPELASPELYGDQRKRLAARDIVNQITIEWVGSLTRDEVMRRCLEKEVPVGPLNSIADMFNDEHFLARGNFACIEAEGIGEVVVPNVIPRLSETPGRVTNLGPPLGNATYEVLRELLDISAEEIKRLRSRKII", "chain 2": "MDGTTTTLPLAGIRVIDAATVIAAPFCATLLGEFGADVLKVEHPIGGDALRRFGTPTARGDTLTWLSESRNKRSVTLNLQHPEGARVFKELIAHSDVLCENFRPGTLEKWGLGWDVLSKINPRLIMLRVTGYGQTGPYRDRPGFARIAHAVGGIAYLAGMPKGTPVTPGSTTLADYMTGLYGCIGVLLALRHREQTGRGQYIDAALYESVFRCSDELVPAYGMYRKVRERHGSHYNEFACPHGHFQTKDGKWVAISCATDKLFARLANAMGRPELASSSVYGDQKVRLAHASDVNEIVRDWCSSLTRAEVLERCYATATPAAPLNDIADFFGDRHVHARRNLVAIDAEDLGETLIMPNVVPKLSETPGSIRSLGPKLGEHTEEVLKEILGMCDEQINDLRSKRVI"}, "B4": {"name": "(2S)-methylsuccinyl-CoA dehydrogenase (PmMcd) (Pseudomonas migulae) (protein)", "chain": "MLPITAADDVQGLLLQLRGLLEQAISALASRCTKGRQLDAELLDLMQVPTFELAWASAELLAAERSLQAIDAGTSSVDRRLILVFAVEAITLVHSRLEAIYAELDLADGTLHAIAADQKLRALRRSVLSSTALHDSARLMVERPEQIGQVAMGDELSMIEDQFRRFAADTVAPLAEHIHREDLIIPDSLLAALRDMGVFGLSIPERYGGSAPDDQEDPLTMIVVTEALSQASLAAAGSLITRPEILSRALLSGGTESQKQHWLARLAVGDPLCAIAITEPDYGSDVAGLTLRGTPCEGGWRLNGAKTWCTFAGKAGVLMVVTRTNPDKSLGHRGLSLLLAEKPSYDGHEFDFRQPGGGSLTGRAIPTIGYRGMHSFDLSFEDFFVPDGNVIGEAQGLGKGFYHTMAGMTGGRMQTAGRASGVMRAALLAGLRYATERKVFGSPLLDYPLTGAKLTKMAARYVASRYLTYSVGRMLAQGEGRMEASLVKLFACRSAELVTRESLQIHGGMGYAEEVAVSRYFVDARVLSIFEGAEETLALKVIGRSLLEAALKAEAA"}, "B5": {"name": "mesaconyl-CoA hydratase (Mch) (Cereibacter sphaeroides 2.4.1) (protein)", "chain": "MKTNAGRFFEDYRLGETIAHAVPRTVSGGERALYHALYPARHALSSSDEFARACGLPAAPVDELMAFHLVFGKTVPDISLNAVANLGYAEGRWLKPVFPGDTLRAESTVIGLKENSNGASGVVWVRTRGLNQQGEAVLSYVRWVMVRKRDTAAPAPAPTVPELAGSVAASDLVIPEGLSFTDYDLTLAGEPHRWGDYAVGEKIDHVDGVTVEESEHMLATRLWQNTAKVHFDATNRPDGRRLIYGGHVISLARTLSFNGLANAQMIVALNAGAHANPCFAGDTVRAWSEVLDKAETADPGVGALRLRLVAMKHGTEPFVTRSEDGKYLPGVLLDLDYWALVPR"}, "B6": {"name": "β-alanyl-CoA:ammonia lyase (βCal) (Allostigmatella aurantiaca DW4/3-1) (protein)", "chain": "MSTKAIIRLRMSSHDAHYGGNLVDGARMLGLFGDVATELCIRHDGDEGLFRAYDSVEFLAPVYAGDFIEAEGEILSEGNTSRKMRFEARKVIRPRTDVNDSAADLLSEPVVVCRATGTCVVPKDKQRIPR"}, "B7": {"name": "4-aminobutyrate-2-oxoglutarate transaminase (GabT) (Escherichia coli K-12) (protein)", "chain": "MNSNKELMQRRSQAIPRGVGQIHPIFADRAENCRVWDVEGREYLDFAGGIAVLNTGHLHPKVVAAVEAQLKKLSHTCFQVLAYEPYLELCEIMNQKVPGDFAKKTLLVTTGSEAVENAVKIARAATKRSGTIAFSGAYHGRTHYTLALTGKVNPYSAGMGLMPGHVYRALYPCPLHGISEDDAIASIHRIFKNDAAPEDIAAIVIEPVQGEGGFYASSPAFMQRLRALCDEHGIMLIADEVQSGAGRTGTLFAMEQMGVAPDLTTFAKSIAGGFPLAGVTGRAEVMDAVAPGGLGGTYAGNPIACVAALEVLKVFEQENLLQKANDLGQKLKDGLLAIAEKHPEIGDVRGLGAMIAIELFEDGDHNKPDAKLTAEIVARARDKGLILLSCGPYYNVLRILVPLTIEDAQIRQGLEIISQCFDEAKQ"}}, "key": {"[1]": {"system": "propionyl-CoA synthetase (Pcs)"}, "[2]": {"substrate": "CC(C)(COP(=O)(O)OP(=O)(O)OC[C@H]1O[C@@H](n2cnc3c(N)ncnc32)[C@H](O)[C@@H]1OP(=O)(O)O)[C@@H](O)C(=O)NCCC(=O)NCCSC(=O)CC(=O)O", "experiment": "purified protein", "settings": "NADPH co-substrate; full-length Mcr assumed (McrC also made)"}, "[3]": {"substrate": "C=CC(=O)SCCNC(=O)CCNC(=O)[C@H](O)C(C)(C)COP(=O)(O)OP(=O)(O)OC[C@H]1O[C@@H](n2cnc3c(N)ncnc32)[C@H](O)[C@@H]1OP(=O)(O)O", "experiment": "purified protein", "settings": "NADPH co-substrate"}, "[4]": {"substrate": "NC(=O)C1=CN([C@@H]2O[C@H](COP(=O)(O)OP(=O)(O)OC[C@H]3O[C@@H](n4cnc5c(N)ncnc54)[C@H](OP(=O)(O)O)[C@@H]3O)[C@@H](O)[C@H]2O)C=CC1", "experiment": "purified protein", "settings": "acrylyl-CoA co-substrate; varied: cofactor"}, "[5]": {"substrate": "CC(C)(COP(=O)(O)OP(=O)(O)OC[C@H]1O[C@@H](n2cnc3c(N)ncnc32)[C@H](O)[C@@H]1OP(=O)(O)O)[C@@H](O)C(=O)NCCC(=O)NCCSC(=O)CCC(=O)O", "experiment": "purified protein"}, "[6]": {"substrate": "O=C(O)C[C@H](O)C(=O)O", "experiment": "purified protein", "settings": "succinyl-CoA co-substrate"}, "[7]": {"substrate": "CC(C)(COP(=O)(O)OP(=O)(O)OC[C@H]1O[C@@H](n2cnc3c(N)ncnc32)[C@H](O)[C@@H]1OP(=O)(O)O)[C@@H](O)C(=O)NCCC(=O)NCCSC(=O)/C=C/C(=O)O", "experiment": "purified protein"}, "[8]": {"substrate": "CC(C)(COP(=O)(O)OP(=O)(O)OC[C@H]1O[C@@H](n2cnc3c(N)ncnc32)[C@H](O)[C@@H]1OP(=O)(O)O)[C@@H](O)C(=O)NCCC(=O)NCCSC(=O)CCN", "experiment": "purified protein", "settings": "NADPH, NaHCO3, excess Ccr"}, "[9]": {"substrate": "N[C@@H](CCC(=O)O)C(=O)O", "experiment": "malonic semialdehyde made by McrC", "type": "biochemical, Escherichia coli", "settings": "malonic semialdehyde co-substrate, NH4Cl"}, "[10]": {"substrate": "O=CCC(=O)O", "experiment": "malonic semialdehyde made by McrC", "type": "biochemical, Escherichia coli", "settings": "L-glutamate co-substrate, NH4Cl"}}, "note": "Read-outs that look alike come from different tables or passages of the source.", "data": [{"molecule": "O=C(O)CCO", "note": "[3-hydroxypropionate]", "values": [{"measurement": "Km", "setting": "[1]; read-out: app. Km, ATP, NADPH co-substrates", "value": 85, "unit": "µM"}]}, {"molecule": "Nc1ncnc2c1ncn2[C@@H]1O[C@H](COP(=O)(O)OP(=O)(O)OP(=O)(O)O)[C@@H](O)[C@H]1O", "note": "[ATP]", "values": [{"measurement": "Km", "setting": "[1]; read-out: app. Km, 3-hydroxypropionate, NADPH co-substrates", "value": 10, "unit": "µM"}]}, {"molecule": "B1", "values": [{"measurement": "Km", "setting": "[2]", "value": 1.3, "unit": "µM"}]}, {"molecule": "B2", "values": [{"measurement": "Km", "setting": "[3]", "value": 780, "unit": "µM"}, {"measurement": "Km", "setting": "[4]", "value": 210, "unit": "µM"}]}, {"molecule": "B3", "values": [{"measurement": "Km", "setting": "[5]; malate co-substrate", "value": 960, "unit": "µM"}, {"measurement": "Km", "setting": "[6]", "value": 910, "unit": "µM"}]}, {"molecule": "B4", "values": [{"measurement": "Km", "setting": "[5]; ferrocenium electron acceptor", "value": 78, "unit": "µM"}]}, {"molecule": "B5", "values": [{"measurement": "Km", "setting": "[7]", "value": 280, "unit": "µM"}]}, {"molecule": "B6", "values": [{"measurement": "Km", "setting": "[8]", "value": 70, "unit": "µM"}]}, {"molecule": "B7", "values": [{"measurement": "Km", "setting": "[9]", "value": 7, "unit": "µM"}, {"measurement": "Km", "setting": "[10]", "value": 98, "unit": "µM"}]}]}
